Measured values taken from the supplement of paper PMC7877785.
± gives the uncertainty stated by the source.

Assay: self-splicing fitness, log relative to wild type (ln ratio); higher = more splicing; Tetrahymena group I intron in knt gene, E. coli kanamycin selection, DiMSum; sequences stand for … in CUCUCU…GGAGGGAAAAGUUAUCAGGCAUGCACCUGGUAGCUAGUCUUUAAACCAAUAGAUUGCAUCGGUUUAAAAGGCAAGACCGUCAAAUUGCGGGAAAGGGGUCAACAGCCGUUCAGUACCAAGUCUCAGGGGAAACUUUGAGAUGGCCUUGCAAAGGGUAUGGUAAUAAGCUGACGGACAUGGUCCUAACCACGCAGCCAAGUCCUAAGUCAACAGAUCUUCUGUUGAUAUGGAUGCAGUUCACAGACUAAAUGUCGGUCGGGGAAGAUGUAUUCUUCUCAUAAGAUAUAGUCGGACCUCUCCUUAAUGGGAGCUAGCGGAUGAAGUGAUGCAACACUGGAGCCGCUGGGAACUAAUUUGUAUGCGAAAGUAUAUUGAUUAGUUUUGGAGUACUCGUGGUCG
In short: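 DiMSum derived fitness as the error-weighted combination of fold changes across replicates, kanamycin versus no kanamycin, normalised to wild type. E. coli BL21(DE3) held the library, which randomised all eight P1ex-region intron nucleotides within the knt kanamycin-resistance gene on pET-22b(+). Six replicate transformations grew overnight at 37°C or 30°C on LB agar with or without 25 μg/mL kanamycin, also containing 100 μg/mL carbenicillin, 50 μM IPTG and 0.2% rhamnose, and pooled colonies were amplicon-sequenced on an Illumina HiSeq 2500.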

Row | Sequence | self-splicing fitness (ln) (30 °C) | self-splicing fitness (ln) (37 °C)
1 | AGACAGCAAUAUUACGAACG | -1.29 ± 0.1 | -0.106 ± 0.12
2 | CGAAAGCAAUAUUACGGGUG | 0.0165 ± 0.043 | 0.189 ± 0.063
3 | GCGAAGCAAUAUUACGAGUC | -2.93 ± 0.13 | -2.33 ± 0.21
4 | UAAAAGCAAUAUUACGUUUA | -1.14 ± 0.099 | -0.871 ± 0.099
5 | CUCGAGCAAUAUUACGGGUG | -2.04 ± 0.077 | -1.88 ± 0.095
6 | ACCGAGCAAUAUUACGGCAA | -1.19 ± 0.12 | -1.48 ± 0.12
7 | CGAUAGCAAUAUUACGACAG | 0.215 ± 0.1 | 0.719 ± 0.12
8 | GCAUAGCAAUAUUACGAGGC | -3.26 ± 0.43 | -1.27 ± 0.36
9 | AAGGAGCAAUAUUACGACGU | -1.88 ± 0.13 | -0.122 ± 0.14
10 | UUUGAGCAAUAUUACGUGUG | -3.37 ± 0.23 | -2.55 ± 0.33
11 | CAGAAGCAAUAUUACGAGGA | -4.09 ± 0.4 | -2.01 ± 0.2
12 | UUUAAGCAAUAUUACGUACA | -0.498 ± 0.12 | 0.0487 ± 0.14
13 | GUAAAGCAAUAUUACGUGUU | -2.69 ± 0.098 | -0.867 ± 0.11
14 | GUAGAGCAAUAUUACGGUAG | -2.36 ± 0.12 | -1.24 ± 0.13
15 | AUUGAGCAAUAUUACGACUA | -1.2 ± 0.42 | -1.89 ± 0.41
16 | UCAAAGCAAUAUUACGGCCG | -0.434 ± 0.1 | 0.158 ± 0.17
17 | GGCCAGCAAUAUUACGCUCA | -0.637 ± 0.13 | -0.183 ± 0.13
18 | AUGUAGCAAUAUUACGGCGG | -0.915 ± 0.19 | -1.14 ± 0.23
19 | CAGGAGCAAUAUUACGUGGA | -3.47 ± 0.2 | -3.3 ± 0.26
20 | UACAAGCAAUAUUACGCAGA | -2.31 ± 0.15 | -1.29 ± 0.1
21 | GCGAAGCAAUAUUACGCAAU | -3.2 ± 0.2 | -2.07 ± 0.19
22 | UCUCAGCAAUAUUACGGAGG | -4.93 ± 0.29 | -1.97 ± 0.17
23 | CUGGAGCAAUAUUACGUGUG | -1.53 ± 0.11 | -0.75 ± 0.13
24 | UGAAAGCAAUAUUACGAGAG | -4.15 ± 0.33 | -1.61 ± 0.14
25 | UAUAAGCAAUAUUACGAAAA | -1.72 ± 0.31 | -1.27 ± 0.31

Row | Sequence | self-splicing fitness (ln) (30 °C) | self-splicing fitness (ln) (37 °C)
26 | GUAAAGCAAUAUUACGAGGG | -3.57 ± 0.24 | 
27 | CCGAAGCAAUAUUACGCGUC | -3.28 ± 0.25 | -3.2 ± 0.32
28 | AUCCAGCAAUAUUACGCGAG | -0.838 ± 0.065 | -0.241 ± 0.078
29 | UUUCAGCAAUAUUACGUAGG | -0.515 ± 0.068 | -0.741 ± 0.11
30 | ACCCAGCAAUAUUACGAAUC | -2.13 ± 0.12 | -1.45 ± 0.16
31 | GUCAAGCAAUAUUACGGCUA | -1.28 ± 0.073 | -0.658 ± 0.066
32 | CCUGAGCAAUAUUACGUGGA | -3.5 ± 0.2 | -2.03 ± 0.18
33 | CCGUAGCAAUAUUACGAAGA | -3.8 ± 0.35 | -2.08 ± 0.24
34 | GGGAAGCAAUAUUACGGGUC | -2.67 ± 0.3 | -2.08 ± 0.33
35 | AAAGAGCAAUAUUACGACUG | -3 ± 0.32 | 
36 | GAUUAGCAAUAUUACGCUAG | -1.95 ± 0.17 | -0.989 ± 0.15
37 | GACUAGCAAUAUUACGUCGC | -3.63 ± 0.18 | -1.94 ± 0.16
38 | GGCGAGCAAUAUUACGGAUA |  | -2.08 ± 0.37
39 | CUGGAGCAAUAUUACGGCCA |  | -1.99 ± 0.24
40 | UGGCAGCAAUAUUACGAUUA | -0.716 ± 0.089 | 0.492 ± 0.11
41 | CGCGAGCAAUAUUACGCGCG |  | -2.07 ± 0.29
42 | UCUCAGCAAUAUUACGUAGG | -0.566 ± 0.053 | -0.133 ± 0.1
43 | UCCAAGCAAUAUUACGACCA | -1.63 ± 0.16 | -0.935 ± 0.17
44 | CUUCAGCAAUAUUACGAACU | -3.9 ± 0.37 | -1.75 ± 0.27
45 | AGCCAGCAAUAUUACGAGGG | -2.58 ± 0.15 | -2.38 ± 0.17
46 | CCGAAGCAAUAUUACGCGAC | -3.1 ± 0.2 | -1.48 ± 0.19
47 | GUACAGCAAUAUUACGUCAC |  | -2.14 ± 0.31
48 | UGCGAGCAAUAUUACGGUAC | -4.18 ± 0.3 | -3.26 ± 0.23
49 | UCCUAGCAAUAUUACGGUGC | -2.74 ± 0.17 | -2.36 ± 0.18
50 | CCCCAGCAAUAUUACGAUCA | -1.97 ± 0.12 | -2.68 ± 0.23

Row | Sequence | self-splicing fitness (ln) (30 °C) | self-splicing fitness (ln) (37 °C)
51 | GCCAAGCAAUAUUACGUUGA | -2.53 ± 0.065 | -1.39 ± 0.065
52 | UAAUAGCAAUAUUACGCGGU | -3 ± 0.31 | -2.29 ± 0.35
53 | AGUGAGCAAUAUUACGCGCG | -1.28 ± 0.16 | -1.83 ± 0.22
54 | ACACAGCAAUAUUACGUUCC | -2.17 ± 0.088 | -1.29 ± 0.1
55 | AUCCAGCAAUAUUACGGCGA | -1.02 ± 0.098 | -0.399 ± 0.13
56 | UCUCAGCAAUAUUACGCAGU | -2.93 ± 0.16 | -1.96 ± 0.19
57 | UAUUAGCAAUAUUACGGUAU | -3.6 ± 0.29 | -2.26 ± 0.31
58 | AGUGAGCAAUAUUACGUUUC | -3.41 ± 0.23 | -3.56 ± 0.32
59 | GAAUAGCAAUAUUACGCGUU | -3.4 ± 0.24 | -1.37 ± 0.15
60 | CAACAGCAAUAUUACGCUUU | -2.5 ± 0.17 | -2.54 ± 0.2
61 | CCUCAGCAAUAUUACGCCUG | -2.38 ± 0.081 | -1.72 ± 0.11
62 | GAACAGCAAUAUUACGGACA | -1.3 ± 0.1 | -0.732 ± 0.09
63 | AUGGAGCAAUAUUACGGGCG | -3.21 ± 0.26 | -2.63 ± 0.44
64 | AAACAGCAAUAUUACGAGUG | -2.71 ± 0.075 | -1.8 ± 0.074
65 | CGUUAGCAAUAUUACGCCGG | -0.8 ± 0.11 | -0.767 ± 0.11
66 | GACCAGCAAUAUUACGUGAA | -0.0938 ± 0.063 | 0.524 ± 0.089
67 | UGAGAGCAAUAUUACGUUGC | -2.35 ± 0.22 | -1.06 ± 0.33
68 | GCGUAGCAAUAUUACGGGUU | -2.12 ± 0.12 | -1.32 ± 0.15
69 | CAGUAGCAAUAUUACGGCUC | -1.36 ± 0.14 | 0.325 ± 0.16
70 | GUCGAGCAAUAUUACGCGGA | -3.08 ± 0.29 | -1.25 ± 0.19
71 | CAUAAGCAAUAUUACGUUCA | -3.29 ± 0.13 | -1.95 ± 0.13
72 | AGACAGCAAUAUUACGAUAA | -2.68 ± 0.16 | -0.931 ± 0.15
73 | GUGGAGCAAUAUUACGAGCA | -2.49 ± 0.34 | -1.93 ± 0.39
74 | CAUGAGCAAUAUUACGUGGU | -3.53 ± 0.18 | -2.49 ± 0.16
75 | AGGCAGCAAUAUUACGUAUG | -3.27 ± 0.27 | -1.53 ± 0.15

Row | Sequence | self-splicing fitness (ln) (30 °C) | self-splicing fitness (ln) (37 °C)
76 | AAGCAGCAAUAUUACGCAAA | -1.82 ± 0.14 | -1.65 ± 0.13
77 | UGAGAGCAAUAUUACGGAUA |  | -2.5 ± 0.26
78 | CCGUAGCAAUAUUACGCGCU | -3.4 ± 0.4 | -1.57 ± 0.3
79 | CACUAGCAAUAUUACGGCCA | -3.1 ± 0.23 | 
80 | GCAAAGCAAUAUUACGUUUC | -4.41 ± 0.28 | -3.44 ± 0.23
81 | UCGGAGCAAUAUUACGGUUG | -3.25 ± 0.24 | -2.48 ± 0.33
82 | AAAGAGCAAUAUUACGAGGG | -3.04 ± 0.27 | -2.34 ± 0.39
83 | UUUCAGCAAUAUUACGAUCA | 0.131 ± 0.14 | 0.086 ± 0.14
84 | UCAAAGCAAUAUUACGGUUG | -1.38 ± 0.086 | -0.732 ± 0.12
85 | UAUUAGCAAUAUUACGCGUA | -1.95 ± 0.16 | -0.462 ± 0.12
86 | GAACAGCAAUAUUACGAUAU | -1.36 ± 0.061 | -0.525 ± 0.074
87 | UUGCAGCAAUAUUACGGGCU | -1.6 ± 0.16 | -1.17 ± 0.22
88 | CCAUAGCAAUAUUACGCAGU | -2.94 ± 0.14 | -3.37 ± 0.42
89 | GUUUAGCAAUAUUACGAUGA | -2.41 ± 0.21 | -1.39 ± 0.14
90 | CGACAGCAAUAUUACGAUGU | -2.74 ± 0.15 | -2.59 ± 0.18
91 | UACGAGCAAUAUUACGAAGA | -2.13 ± 0.37 | 
92 | GAGAAGCAAUAUUACGGGAG | -2.12 ± 0.13 | -1.63 ± 0.18
93 | UAUUAGCAAUAUUACGUACU | -0.305 ± 0.13 | -0.224 ± 0.16
94 | GUUUAGCAAUAUUACGACGG | -2.88 ± 0.25 | -3.5 ± 0.47
95 | GUCAAGCAAUAUUACGAUGU | -1.75 ± 0.042 | -0.404 ± 0.055
96 | UGGAAGCAAUAUUACGGCAU | -1.94 ± 0.19 | -1.13 ± 0.19
97 | GCAAAGCAAUAUUACGCUAU | -2.57 ± 0.23 | -1.06 ± 0.17
98 | CCUGAGCAAUAUUACGACUG | -1.38 ± 0.16 | -1.25 ± 0.19
